# From publication PMC10949841 (2024)
# Where a chain is given by its changes, count along the chain named. Numbers in names are those of the source.
# T1: HAdV-C5 hexon labeled with AlexaFluor594 (human adenovirus C5 (HAdV-C5), UniProt P04133 1-952, AlexaFluor594 label (sites not given))
# T1 chain: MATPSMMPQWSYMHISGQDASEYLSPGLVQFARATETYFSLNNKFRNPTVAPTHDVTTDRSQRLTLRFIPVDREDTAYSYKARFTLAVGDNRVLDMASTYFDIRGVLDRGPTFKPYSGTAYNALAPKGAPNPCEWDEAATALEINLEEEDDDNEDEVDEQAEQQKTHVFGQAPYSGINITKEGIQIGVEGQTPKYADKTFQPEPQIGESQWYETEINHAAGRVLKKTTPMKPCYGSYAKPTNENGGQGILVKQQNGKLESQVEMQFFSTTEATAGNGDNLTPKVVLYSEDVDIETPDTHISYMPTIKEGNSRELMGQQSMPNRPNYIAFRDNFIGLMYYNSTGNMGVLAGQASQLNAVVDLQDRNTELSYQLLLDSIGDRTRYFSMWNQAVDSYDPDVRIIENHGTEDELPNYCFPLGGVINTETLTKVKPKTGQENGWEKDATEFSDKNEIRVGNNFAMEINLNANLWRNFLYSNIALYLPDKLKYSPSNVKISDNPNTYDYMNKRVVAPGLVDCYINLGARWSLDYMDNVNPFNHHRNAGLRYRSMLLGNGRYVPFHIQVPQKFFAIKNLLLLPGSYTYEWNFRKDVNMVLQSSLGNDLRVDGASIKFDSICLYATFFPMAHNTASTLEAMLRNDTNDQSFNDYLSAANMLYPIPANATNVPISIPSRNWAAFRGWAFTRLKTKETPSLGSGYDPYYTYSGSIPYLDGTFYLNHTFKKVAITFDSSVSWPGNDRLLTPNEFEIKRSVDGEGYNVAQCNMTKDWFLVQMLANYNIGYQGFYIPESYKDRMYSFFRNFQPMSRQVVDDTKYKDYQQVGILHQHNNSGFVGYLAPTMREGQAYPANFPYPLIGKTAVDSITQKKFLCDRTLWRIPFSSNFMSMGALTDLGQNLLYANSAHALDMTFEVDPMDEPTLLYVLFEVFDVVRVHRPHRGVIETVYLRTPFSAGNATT
# B1: hLF mut3 (K28A) (natural protein)
# chain: GRRRSVQWCAVSQPEATKCFQWQRNMRAVRGPPVSCIKRDSPIQCIQAIAENRADAVTLDGGFIYEAGLAPYKLRPVAAEVYGTERQPRTHYYAVAVVKKGGSFQLNELQGLKSCHTGLRRTAGWNVPIGTLRPFLNWTGPPEPIEAAVARFFSASCVPGADKGQFPNLCRLCAGTGENKCAFSSQEPYFSYSGAFKCLRDGAGDVAFIRESTVFEDLSDEAERDEYELLCPDNTRKPVDKFKDCHLARVPSHAVVARSVNGKEDAIWNLLRQAQEKFGKDKSPKFQLFGSPSGQKDLLFKDSAIGFSRVPPRIDSGLYLGSGYFTAIQNLRKSEEEVAARRARVVWCAVGEQELRKCNQWSGLSEGSVTCSSASTTEDCIALVLKGEADAMSLDGGYVYTAGKCGLVPVLAENYKSQQSSDPDPNCVDRPVEGYLAVAVVRRSDTSLTWNSVKGKKSCHTAVDRTAGWNIPMGLLFNQTGSCKFDEYFSQSCAPGSDPRSNLCALCIGDEQGENKCVPNSNERYYGYTGAFRCLAENAGDVAFVKDVTVLQNTDGNNNEAWAKDLKLADFALLCLDGKRKPVTEARSCHLAMAPNHAVVSRMDKVERLKQVLLHQQAKFGRNGSDCPDKFCLFQSETKNLLFNDNTECLARLHGKTTYEKYLGPQYVAGITNLKKCSTSPLLEACEFLRK
# B2: human lactoferrin (hLF), wild type (natural protein)
# chain: B1 chain with A28K
# B3: hLF mut2 (R27A) (natural protein)
# chain: B1 chain with R27A, A28K
# B4: hLF mut7 (N673A/S678A) (natural protein)
# chain: B1 chain with A28K, N673A, S678A
# B5: hLF mut4 (R30A) (natural protein)
# chain: B1 chain with A28K, R30A
# B6: hLF mut1 (R24S) (natural protein)
# chain: B1 chain with R24S, A28K
# B7: hLF mut5 (R24S/R27A/K28A/R30A) (natural protein)
# chain: B1 chain with R24S, R27A, R30A
# B8: hLF mut8 (E687A/K691A) (natural protein)
# chain: B1 chain with A28K, E687A, K691A
# B9: hLF mut6 (K277S/K280A/K285S) (natural protein)
# chain: B1 chain with A28K, K277S, K280A, K285S
# Target: T1, HAdV-C5 hexon labeled with AlexaFluor594
# Assay: MST
row,Binder,Kd
1,B1,125 nM
2,B2,117 nM
3,B3,167 nM
4,B4,207 nM
5,B5,207 nM
6,B6,247 nM
7,B7,602 nM
8,B8,370 nM
9,B9,584 nM
